Experimental data published in patent publication US11826400B2, “Neuregulin based compositions and uses thereof for preventing, treating or delaying the myocardial ischemia-reperfusion injury” (ZENSUN (SHANGHAI) SCIENCE & TECHNOLOGY LIMITED, priority 2010, dated 2023).

Test system: myocardial ischemia reperfusion in rat
Test: Therapeutic effect on myocardial ischemia reperfusion in rat (coronary ligation 45 min, reperfusion 2 h, TCC staining of heart sections)
Type: in vivo, Wistar rats
Settings: P<0.05
Procedure: Wistar rats (male, 200˜240 g) were divided into groups and administered with different dosages of rhNRG-1, placebo or rhThymosin-β4 (as shown in Table 1) after anaesthetized with intra-abdominal injection of 20% urethane (5 ml/kg). Thirty minutes after the drug started to be given to the rats, the anterior descending limb of the left coronary artery was ligated for 45 minutes to cause partial myocardium turned white obviously in the ligation area. After that the ligation thread was loosen to keep coronary blood flow for 2 hours and then take out the heart rapidly and wash vascular fat away with normal saline, and then freeze the heart in −30° C. for one hour.
Cut the heart parallelly from apex to base along coronary sulcus to myocardium sections with the thickness of 1 mm, and then put them into TCC dye liquor for 20 min in 37° C. in a shaker. After staining extra dye was washed immediately with water, and then the sections were put into 4% formalin for one hour. Photo and analyze the total size and the infarction size of were analyzed with Image Analysis Software. Infarction size ratio equals to the ratio of the infarction size and the total size of the myocardium section.

B1: rhNRG-1: produced by Zensun (Shanghai) Science & Technology Ltd, having the amino acids of SEQ ID NO:1 (177-237 residues of NRG-1β2 isoform) (protein, listed as Homo sapiens)
chain: SHLVKCAEKEKTFCVNGGECFMVKDLSNPSRYLCKCPNEFTGDRCQNYVMASFYKAEELYQ
Group B, 10 μg/kg/h continuous infusion
  Infarction size compared with Group A (placebo): significantly smaller than that of Group A
Group C, 30 μg/kg/h continuous infusion
  Infarction size compared with Group A (placebo): significantly smaller than that of Group A
